# Test results published in the supplement of paper PMC9732359.
# ± gives the uncertainty stated by the source.
# Test: protein stability index of a GFP-peptide fusion (yeast GPS) (PSI 1-4); higher = more stable; sorted into four equal gates, so the index is relative within each strain
# Conditions: ubr1∆
# Outline: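 Plasmids in a pooled yeast library fused tiled 17-residue yeast protein peptides downstream of GFP and also expressed Cherry. Mid-log cultures grown without leucine were sorted into four equal gates by GFP/Cherry fluorescence ratio. Each gate's plasmids were PCR-amplified and Illumina-sequenced, and reads were matched to strains by barcodes. The protein stability index is derived by multiplying each gate's read frequency by its gate number and summing the results.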
row,Sequence,protein stability index
1,ISMNAPVFVDLEGETDP [RPO26],3 ± 0.19
2,ISNGTINIQKKLEPKEI [SIR4],3 ± 0.1
3,ISNLTQEQVQDYVNKTN [FAS1],2.27 ± 0.033
4,ISSAKLDKFTDGGLFTL [QCR2],3.21 ± 0.14
5,ISSLFTITTILILGLNT [YML103C/NUP188],1.75 ± 0.065
6,ISSPIVANSPNKRLDVI [YDL088C/ASM4],2.85 ± 0.13
7,ISTPIINAVLVNDNDER [RPO31],2.21 ± 0.086
8,ISVGESGDRLTRASKVL [RPL11A],3.4 ± 0.22
9,ISYLQEVQCTSTPYLEI [PCI8],1.81 ± 0.22
10,ITKMLASDESLLRYGGA [RPN2],3.82 ± 0.22
11,ITLLTRQRELLIAHQRS [GRR1],1.89 ± 0.029
12,ITLRTSGELLQGIVRVY [MCD1],3.12 ± 0.057
13,ITNKHQEGLAKFGACVA [RPN2],2.51 ± 0.035
14,ITSDALEGITTTIDSLN [SMC3],2.99 ± 0.07
15,ITSIPKPLTENCKKKKK [RMP1],2.99 ± 0.095
16,ITVVPVVAAAEDDDNEQ [QCR6],1.89 ± 0.036
17,IVAALPISEKGLTLSTT [RPP1],2.48 ± 0.094
18,IVDDKQEMIDILETIFR [DIB1],2.75 ± 0.18
19,IVDGKLKTEKIFKEINE [FAS1],1.91 ± 0.091
20,IVFDICQILDGELDVLQ [PRP8],3.07 ± 0.11
21,IVKFKQKEEGRSFTKAI [YLR335W/NUP2],3.29 ± 0.047
22,IVLGVKDLQENLLVLRG [RPO21],1.5 ± 0.071
23,IVLIKGISSAYIKSATL [SNU114],2.52 ± 0.064
24,IVPGTYIQERNPTQRPQ [RPS10A],3.12 ± 0.034
25,IWFPEDFISPELIIDKV [MED1],2.94 ± 0.044

row,Sequence,protein stability index
1,IWLIKCCYFIEWKSNHK [SRB8],2.59 ± 0.15
2,IWNDVVYGEGTSRVTGI [YJL039C/NUP192],3.45 ± 0.091
3,IYAKQQEQLKQMDQQLQ [ARP7],2.7 ± 0.072
4,IYINKSVPTNSADAPNP [RET1],3.29 ± 0.052
5,IYNGKAFNQVEIRPEML [RPS15],3.26 ± 0.14
6,IYNSTDSNSEILNFLNQ [YML103C/NUP188],2.9 ± 0.076
7,IYPRTVIDIEIHVLEQD [SKI6],1.83 ± 0.041
8,IYQIHIPYAAKLLFQEL [RPB2],2.88 ± 0.077
9,KAANFIQNQSPQFNSPY [SWI1],2.42 ± 0.058
10,KACKTADKLVNVTQNEQ [SRP68],3.07 ± 0.07
11,KAEFSKEMTLQKNMNDL [YIL149C/MLP2],3.07 ± 0.067
12,KAELIKPIQNGEIIDIS [ARP9],2.92 ± 0.092
13,KAGGECITLDQLAVRAP [RPL18A],2.57 ± 0.077
14,KAINQELEDVAVKKLYA [YCS4],2.94 ± 0.08
15,KAKKLIQSLPPTLKVNR [RPL38],2.27 ± 0.036
16,KAKRAKTGSASTVKGSV [TAF14],3.16 ± 0.083
17,KAKRSNLYTPKAEMPPE [PRP8],2.89 ± 0.077
18,KAMSSRAGVSQVLNRYT [RPB2],3.29 ± 0.053
19,KANEKKESDESKSAFSF [YJL041W/NSP1],3.12 ± 0.043
20,KARNGLDYVRTPAAATS [SNF2],2.35 ± 0.049
21,KDDGAFVKFLSKKGSLE [RPL10],3.25 ± 0.064
22,KDHDLKIPLPEVHDLIG [POP1],2.54 ± 0.11
23,KDILVKTGITKKDEDEE [PRE9],3.17 ± 0.14
24,KDKTKNISAEIIRHEKE [SMC4],2.91 ± 0.1
25,KDLKFPLPHRVQKSTKT [RPL20A],2.69 ± 0.043

row,Sequence,protein stability index
1,KDNAKISNNLALVFAAL [SRP68],2.17 ± 0.04
2,KDRIIDERTKEFEKKLQ [YIL149C/MLP2],3.42 ± 0.1
3,KEALLGQLLKDHLIIEP [ARP9],2.45 ± 0.094
4,KEALQNNIFKEFTSKIG [SMC1],2.24 ± 0.073
5,KEAVFKSLGVKSLGGGA [FAS2],3.41 ± 0.092
6,KEEFIMMVNISVLISIP [PCI8],1.36 ± 0.031
7,KEEFSSAENRDEKDYLT [CSE2],2.99 ± 0.12
8,KEKEAAESPEEADVEMS [PUP2],3.28 ± 0.071
9,KEKIKGLQDEIMKIGGI [SMC4],3.36 ± 0.063
10,KELDQELIIDPLFKKAL [BRN1],3.07 ± 0.052
11,KELFGEDEDEDLFGDSN [SSN2],3.67 ± 0.2
12,KELNEKIQKLEEDDEGE [RPN7],1.06 ± 0.08
13,KELVECHLYSQRMHAIH [NNF1],2.23 ± 0.05
14,KEMTLQKNMNDLLRSQL [YIL149C/MLP2],2.64 ± 0.046
15,KENGQLIGAATKFKGGK [SEC65],2.17 ± 0.072
16,KEQADIYAKQQEQLKQM [ARP7],2.88 ± 0.066
17,KERKLRENIAMLKRFFP [SMC1],2.59 ± 0.16
18,KERLVRDKKEKKQAQKQ [SMB1],3.3 ± 0.086
19,KERNSLKKLKAMNDACY [BRR2],3.05 ± 0.06
20,KERTKSLEHELKRSTEL [YIL149C/MLP2],3.12 ± 0.094
21,KESDLLEETRTTIGDTT [BRN1],3.19 ± 0.055
22,KETTIEKLSSEIENLDK [YIL149C/MLP2],3.15 ± 0.056
23,KEYELLTLQEDYIKDEQ [RPT3],3.25 ± 0.065
24,KEYENHSGELMRQQSKE [SMC1],3 ± 0.082
25,KFANQLHDEYLVSMRYP [RPN3],2.76 ± 0.074

row,Sequence,protein stability index
1,KFGYILCVLDYDNIDIQ [RPB7],2.04 ± 0.13
2,KFMELERKTLERQQENL [SWI3],3.12 ± 0.071
3,KFNKSKAKFTSLAVRSL [YCS4],1.8 ± 0.039
4,KFPETSYPILNESSTFL [SIN4],2.64 ± 0.032
5,KGDRALLVKLSKRLPLR [BRR2],2.57 ± 0.042
6,KGEQIAIFPYQDPIFGS [ECM29],2.23 ± 0.039
7,KGEVVLVNIRTQTSKEQ [ITC1],2.56 ± 0.095
8,KGEVYTIPLGGSVHKLP [PRE3],3.04 ± 0.044
9,KGNLLEGKKVMAPYLPG [RPN2],2.14 ± 0.045
10,KGSRFISTLQVKLYGRE [RPB2],2.37 ± 0.056
11,KGVYLILSEILCQINKC [YML103C/NUP188],1.88 ± 0.032
12,KHEDFVEGISEVQARKS [RPT5],3.41 ± 0.2
13,KHGAKKVAKRTKIKPFI [RPL27A],3.24 ± 0.035
14,KHISASIDNDFSEEKAE [YAR002W/NUP60],2.97 ± 0.059
15,KHITVRLTAKRLIEHDP [SRP14],2.65 ± 0.035
16,KHYLEDKLKVYKQAMNE [SNF5],3.08 ± 0.067
17,KIEGCISQVSSIHAIGS [RPB7],2.17 ± 0.15
18,KIGEEDYGEEIKSGVAK [MTW1],3.31 ± 0.12
19,KIHLYEKKLEDYCRILS [YGL172W/NUP49],1.78 ± 0.19
20,KIIDNPKSFLKKDQSVL [YMR129W/POM152],3.2 ± 0.095
21,KIKFDESSKLMTVTKVS [BRR2],1.35 ± 0.05
22,KIPDTYTANTSAQSIAS [YAR002W/NUP60],2.56 ± 0.034
23,KIPEREEKSNEVKTPKI [SIR4],3.44 ± 0.15
24,KIQFHIHFADVAHITTK [RGR1],2.83 ± 0.058
25,KISNSKLLSLLRSKTSA [SIR4],2.29 ± 0.055
